In US5637476:

Target: T1, SfiI modification methylase (M.SfiI) (Streptomyces fimbriatus) (UniProt O52513)
T1 sequence: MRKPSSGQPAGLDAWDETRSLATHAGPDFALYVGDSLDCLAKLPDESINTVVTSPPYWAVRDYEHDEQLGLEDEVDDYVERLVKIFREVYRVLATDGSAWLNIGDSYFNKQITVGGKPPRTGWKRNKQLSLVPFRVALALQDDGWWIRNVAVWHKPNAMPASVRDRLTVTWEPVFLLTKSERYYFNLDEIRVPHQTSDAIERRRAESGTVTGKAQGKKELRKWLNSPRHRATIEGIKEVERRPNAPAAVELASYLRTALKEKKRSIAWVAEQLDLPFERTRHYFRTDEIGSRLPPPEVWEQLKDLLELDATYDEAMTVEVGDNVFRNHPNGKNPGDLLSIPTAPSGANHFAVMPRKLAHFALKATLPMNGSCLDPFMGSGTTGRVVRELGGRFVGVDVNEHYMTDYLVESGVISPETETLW
Assay: inhibition
Conditions: protection from SfiI cleavage; 10 mM EDTA, 0.1 mM AdoMet, 37 C; 0.3M and 0.5M KCl fractions

Question: How did the activity turn out when T4 DNA was run?
Answer: 2500 units/ml
